Results reported in US20110190200A1 (INDIANA UNIVERSITY RESEARCH AND TECHNOLOGY, published 2011).
Where two headings read alike, the source gives them in different places. Numbered stars: 1 amine (or outer) side, 2 acyl side, 3 side chain; on linkers, the order of the positions; unused ones are H or OH. Square brackets hold non-standard residues; d marks the D form. Side chains are listed from the residue outwards. Ends that are not written are not given here. * marks the point of attachment. γGlu = O=C(O)[C@H](CCC(=O)[*:2])N[*:1]; Palmitoyl = CCCCCCCCCCCCCCCC(=O)*; Met(O) = CS(=O)CC[C@H](N)C(=O)O; Myristoyl = CCCCCCCCCCCCCC(=O)*; Nle = CCCC[C@H](N)C(=O)O; Orn = NCCC[C@H](N)C(=O)O; Dab = NCC[C@H](N)C(=O)O; Dap = NC[C@H](N)C(=O)O; Aib = CC(C)(N)C(=O)O; Carbamoyl = NC(=O)*; Ahx = NCCCCCC(=O)O; βAla = NCCC(=O)O; Acm = CC(=O)NC*

Legend:
Experiment in all cases: cell-based or functional assay
glucagon receptor [1] = biological target: T1, glucagon receptor (human, UniProt P47871 26-477)
glucagon receptor [2] = biological target: T1, glucagon receptor; remark: listed apart in the source
GLP-1 receptor = GLP-1 receptor (UniProt P43220 24-463, limits assumed)

T1 sequence (P47871 26-477): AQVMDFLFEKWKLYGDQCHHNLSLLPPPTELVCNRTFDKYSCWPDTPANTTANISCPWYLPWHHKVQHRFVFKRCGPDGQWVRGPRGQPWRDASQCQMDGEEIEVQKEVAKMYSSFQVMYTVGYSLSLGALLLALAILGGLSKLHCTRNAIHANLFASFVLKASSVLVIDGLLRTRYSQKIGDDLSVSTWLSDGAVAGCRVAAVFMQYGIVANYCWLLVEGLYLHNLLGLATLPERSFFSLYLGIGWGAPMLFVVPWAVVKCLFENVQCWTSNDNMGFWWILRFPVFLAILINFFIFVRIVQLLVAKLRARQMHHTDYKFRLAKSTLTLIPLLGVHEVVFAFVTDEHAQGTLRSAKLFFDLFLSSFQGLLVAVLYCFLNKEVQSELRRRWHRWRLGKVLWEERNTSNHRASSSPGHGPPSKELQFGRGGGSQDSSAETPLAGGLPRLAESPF

| Binder | % activity* (glucagon receptor [1]) | EC50 at Glucagon Receptor (glucagon receptor [1]) | EC50 at Glucagon Receptor (glucagon receptor [2]) | EC50 at GLP-1 Receptor (GLP-1 receptor) |
| --- | --- | --- | --- | --- |
| H[Aib]QGTFTSDK([Pro-Pro-Palmitoyl])SKYLD[Aib]RRAQDFVQWLMNT-NH2 [Peptide 87 (Table 10)] | – | – | 0.017 nM | 0.009 nM |
| H[Aib]QGTFTSDK(Palmitoyl)SKYLD[Aib]RRAQDFVQWLMNT-NH2 [Peptide 50 (Table 10)] | – | – | 0.572 nM | – |
| HSC(Acm)GTFTSDYSKYLDTRRAAEFVAWL[Nle]DE [Peptide J backbone, C(Acm) at position 3] | 33% | – | – | – |
| HS[Dab](Ac)GTFTSDYSKYLDTRRAAEFVAWL[Nle]DE [Peptide J backbone, Dab(Ac) at position 3] | 19% | 0.31 nM | – | – |
| H[Aib]QGTFTSDK([βAla-βAla-Palmitoyl])SKYLD[Aib]RRAQDFVQWLMNT-NH2 (N-terminus assumed; SMILES CCCCCCCCCCCCCCCC(=O)NCCC(=O)NCCC(=O)NCCCC[C@H](NC(=O)[C@H](CC(=O)O)NC(=O)[C@H](CO)NC(=O)[C@@H](NC(=O)[C@H](Cc1ccccc1)NC(=O)[C@@H](NC(=O)CNC(=O)[C@H](CCC(N)=O)NC(=O)C(C)(C)NC(=O)[C@@H](N)Cc1c[nH]cn1)[C@@H](C)O)[C@@H](C)O)C(=O)N[C@@H](CO)C(=O)N[C@@H](CCCCN)C(=O)N[C@@H](Cc1ccc(O)cc1)C(=O)N[C@@H](CC(C)C)C(=O)N[C@@H](CC(=O)O)C(=O)NC(C)(C)C(=O)N[C@@H](CCCNC(=N)N)C(=O)N[C@@H](CCCNC(=N)N)C(=O)N[C@@H](C)C(=O)N[C@@H](CCC(N)=O)C(=O)N[C@@H](CC(=O)O)C(=O)N[C@@H](Cc1ccccc1)C(=O)N[C@H](C(=O)N[C@@H](CCC(N)=O)C(=O)N[C@@H](Cc1c[nH]c2ccccc12)C(=O)N[C@@H](CC(C)C)C(=O)N[C@@H](CCSC)C(=O)N[C@@H](CC(N)=O)C(=O)N[C@H](C(N)=O)[C@@H](C)O)C(C)C) [Peptide 84 (Table 10)] | – | – | – | 0.004 nM |
| H[Aib]QGTFTSDK([γGlu-γGlu-Palmitoyl])SKYLD[Aib]RRAQDFVQWLMNT-NH2 [Peptide 83 (Table 10)] | – | – | – | 0.043 nM |
| H[Aib]QGTFTSDK([Ala-Ala-Palmitoyl])SKYLD[Aib]RRAQDFVC(PEG 40 kDa)WLMNT-NH2 [Peptide 79* (Table 10)] | – | – | 0.102 nM | 0.055 nM |
| H[Aib]QGTFTSDK([Ala-Ala-Myristoyl])SKYLD[Aib]RRAQDFVC(PEG 40 kDa)WLMNT-NH2 [Peptide 81* (Table 10)] | – | – | 0.597 nM | 0.271 nM |
| H[Aib]QGTFTSDK([γGlu-γGlu-Myristoyl])SKYLD[Aib]RRAQDFVC(PEG 40 kDa)WLMNT-NH2 [Peptide 78* (Table 10)] | – | – | 0.319 nM | 0.103 nM |
| H[Aib]QGTFTSDK([Ala-Ala-Palmitoyl])SKYLD[Aib]RRAQDFVQWLMNT-NH2 [Peptide 82 (Table 10)] | – | – | 0.024 nM | 0.108 nM |
| H[Aib]QGTFTSDK([Ahx-Palmitoyl])SKYLD[Aib]RRAQDFVQWLMNT-NH2 (N-terminus assumed; SMILES CCCCCCCCCCCCCCCC(=O)NCCCCCC(=O)NCCCC[C@H](NC(=O)[C@H](CC(=O)O)NC(=O)[C@H](CO)NC(=O)[C@@H](NC(=O)[C@H](Cc1ccccc1)NC(=O)[C@@H](NC(=O)CNC(=O)[C@H](CCC(N)=O)NC(=O)C(C)(C)NC(=O)[C@@H](N)Cc1c[nH]cn1)[C@@H](C)O)[C@@H](C)O)C(=O)N[C@@H](CO)C(=O)N[C@@H](CCCCN)C(=O)N[C@@H](Cc1ccc(O)cc1)C(=O)N[C@@H](CC(C)C)C(=O)N[C@@H](CC(=O)O)C(=O)NC(C)(C)C(=O)N[C@@H](CCCNC(=N)N)C(=O)N[C@@H](CCCNC(=N)N)C(=O)N[C@@H](C)C(=O)N[C@@H](CCC(N)=O)C(=O)N[C@@H](CC(=O)O)C(=O)N[C@@H](Cc1ccccc1)C(=O)N[C@H](C(=O)N[C@@H](CCC(N)=O)C(=O)N[C@@H](Cc1c[nH]c2ccccc12)C(=O)N[C@@H](CC(C)C)C(=O)N[C@@H](CCSC)C(=O)N[C@@H](CC(N)=O)C(=O)N[C@H](C(N)=O)[C@@H](C)O)C(C)C) [Peptide 85 (Table 10)] | – | – | 0.01 nM | 0.005 nM |
| H[Aib]QGTFTSDK(Myristoyl)SKYLD[Aib]RRAQDFVC(PEG 40 kDa)WLMNT-NH2 [Peptide 77* (Table 10)] | – | – | 21.9 nM | 1.46 nM |
| H[Aib]QGTFTSDK([Leu-Leu-Palmitoyl])SKYLD[Aib]RRAQDFVQWLMNT-NH2 (N-terminus assumed; SMILES CCCCCCCCCCCCCCCC(=O)N[C@@H](CC(C)C)C(=O)N[C@@H](CC(C)C)C(=O)NCCCC[C@H](NC(=O)[C@H](CC(=O)O)NC(=O)[C@H](CO)NC(=O)[C@@H](NC(=O)[C@H](Cc1ccccc1)NC(=O)[C@@H](NC(=O)CNC(=O)[C@H](CCC(N)=O)NC(=O)C(C)(C)NC(=O)[C@@H](N)Cc1c[nH]cn1)[C@@H](C)O)[C@@H](C)O)C(=O)N[C@@H](CO)C(=O)N[C@@H](CCCCN)C(=O)N[C@@H](Cc1ccc(O)cc1)C(=O)N[C@@H](CC(C)C)C(=O)N[C@@H](CC(=O)O)C(=O)NC(C)(C)C(=O)N[C@@H](CCCNC(=N)N)C(=O)N[C@@H](CCCNC(=N)N)C(=O)N[C@@H](C)C(=O)N[C@@H](CCC(N)=O)C(=O)N[C@@H](CC(=O)O)C(=O)N[C@@H](Cc1ccccc1)C(=O)N[C@H](C(=O)N[C@@H](CCC(N)=O)C(=O)N[C@@H](Cc1c[nH]c2ccccc12)C(=O)N[C@@H](CC(C)C)C(=O)N[C@@H](CCSC)C(=O)N[C@@H](CC(N)=O)C(=O)N[C@H](C(N)=O)[C@@H](C)O)C(C)C) [Peptide 86 (Table 10)] | – | – | – | 0.006 nM |

Results, then the binder that gave them:

| % activity* (glucagon receptor [1]) | EC50 at Glucagon Receptor (glucagon receptor [1]) | EC50 at Glucagon Receptor (glucagon receptor [2]) | EC50 at GLP-1 Receptor (GLP-1 receptor) | Binder |
| --- | --- | --- | --- | --- |
| 7% | 0.92 nM | – | – | HS[Orn](Ac)GTFTSDYSKYLDTRRAAEFVAWL[Nle]DE [Peptide J backbone, Orn(Ac) at position 3] |
| 25% | – | – | – | HSQGTFTSDYSKYLDTRRAAEFVAWL[Nle]DE [Peptide J backbone, Q at position 3] |
| 86% | 0.07 nM | – | – | HS[Dab](Ac)GTFTSDYSKYLD[Aib]RRAADFVAWLMDE [Peptide K backbone, Dab(Ac) at position 3] |
| 7% | 0.91 nM | – | – | HS[Met(O)]GTFTSDYSKYLDTRRAAEFVAWL[Nle]DE [Peptide J backbone, M(O) at position 3] |
| 15% | – | – | – | HSQGTFTSDYSKYLD[Aib]RRAADFVAWLMDE [Peptide K backbone, Q at position 3] |
| 13% | 0.48 nM | – | – | HS[Dap](Carbamoyl)GTFTSDYSKYLDTRRAAEFVAWL[Nle]DE [Peptide J backbone, Dap(urea) at position 3] |
